Measured values published in patent publication US20080171038A1 (KALOBIOS PHARMACEUTICALS, published 2008).

Experiments:
[1] = target: T1, Recombinant human GM-CSF (human, UniProt P04141 18-144, biotinylated for the SPR assay (sites not given)); experiment: surface plasmon resonance analysis, monovalent affinity; format not described
T1 construct: Biotinylated and immobilized on a streptavidin CM5 sensor chip in the SPR assay; used in solution at 0.5 ng/ml in the TF-1 proliferation assay (the species is not restated there); also called hGM-CSF; Granulocyte Macrophage-Colony Stimulating Factor

[2] = target: T1, Recombinant human GM-CSF; experiment: cell-based or functional assay

T1 sequence (P04141 18-144 limits assumed): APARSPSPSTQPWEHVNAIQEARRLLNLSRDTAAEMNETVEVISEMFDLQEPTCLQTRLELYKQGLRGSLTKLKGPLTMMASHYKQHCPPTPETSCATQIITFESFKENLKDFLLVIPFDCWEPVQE

Kd [1]: ~0.01 nM
EC50 of inhibition of GM-CSF-dependent proliferation of a human TF-1 leukemia cell line (0.5 ng/ml GM-CSF) [2]: 0.03 nM
B1: chimeric 19/2 antibody (antibody, V domains shown)
VH: EVQLQQSGPELVKPGASVKISCKASGYTFTDYNIHWVKQSHGKSLDWIGYIAPYSGGTGYNQEFKNRATLTVDKSSSTAYMELRSLTSDDSAVYYCARRDRFPYYFDYWGQGTTLRVSS
VL: DIVMIQSQKFVSTSVGDRVNITCKASQNVGSNVAWLQQKPGQSPKTLIYSASYRSGRVPDRFTGSGSGTDFILTITTVQSEDLAEYFCQQFNRSPLTFGSGTKLELK
